Legend:
purified protein [1] = substrate: Nc1ncnc2c1ncn2[C@@H]1O[C@H](COP(=O)(O)OP(=O)(O)OP(=O)(O)O)[C@@H](O)[C@H]1O; experiment: purified protein; details: pH 7.5, 37 °C, 5 mM MgCl2
purified protein [2] = substrate: [H][C@@]1(O)[C@]2([H])OP(=O)(O)OC[C@@]3([H])O[C@@]([H])(n4cnc5c(N)ncnc54)[C@]([H])(O)[C@]3([H])OP(=O)(O)OC[C@@]2([H])O[C@@]1([H])n1cnc2c(N)ncnc21; experiment: purified protein; details: pH 7.5, 5 mM MgCl2

Protein | Km (purified protein [1]) [µM] | Km (purified protein [2]) [µM]
MsDisA (Mycolicibacterium smegmatis MC2 155) (protein) MAVKSGARSGRNVVHLARPTLRETLGRLAPGTPLRDGLERILRGRTGALIVLGYDDSVEAICDGGFVLDVRYAPTRLRELSKMDGAVVLSSDGSRILRANVQLVPDPSIPTDESGTRHRSAERTAIQTGYPVISVSHSMSIVTVYVAGERHVVPDSATILSRANQTIATLERYKGRLDEVSRQLSTAEIEDFVTLRDVMTVVQRLEMVRRISLEIDADVVELGTDGRQLKLQLDELVGDNETARELIVRDYHANPDPPTAAQVAATLEELDSLSDSELLDFTVLARVFGYPSTAEAQDSAMSSRGYRAMAAIPRLQFAHVDLLVRSFGSLQNLLAASADDLQSVDGIGSMWARHIREGLSLLAESTIADRLA | 480 | –
MsPDE (Mycolicibacterium smegmatis MC2 155) (protein) MPVTTTDPKTGLLTGPDAQIAGARVDARGAADLLTAASSVSVICHVYPDADTIGAGLALAQVLAASGKHVEVSFATPAQLPESLQSLPGGHLLVAPEAMRRDADLVVTVDIPSINRLGALSGLAGPGREVLVIDHHASNQLFGTANYIDPSADSTTMLVAELLDAWGKPIDEKVAHCLYAGLTTDTGSFRWATARAHRLAARLVELGVDNASISRTLLDTHPFAWLPMLSRVLATARLLPDALDGRGFVYAVVPHDEWSEARPEEVESIVDIVRTTQQAEVAAVFKEIEPMHWSVSMRAKSVNLASVASAFGGGGHPHAAGYSATGSADDVVQALARALG | – | 370
